Values belong to the substance of their own block, whether it stands above or below them.
Assays:
[1] = biological target: bovine Rho-kinase (bovine)
[2] = biological target: bovine Rho-kinase (bovine); remark: listed apart in the source
[3] = biological target: bovine Rho-kinase (bovine); remark: listed apart in the source
[4] = biological target: T1, myosin light chain (chicken) (UniProt P02612)
T1 sequence: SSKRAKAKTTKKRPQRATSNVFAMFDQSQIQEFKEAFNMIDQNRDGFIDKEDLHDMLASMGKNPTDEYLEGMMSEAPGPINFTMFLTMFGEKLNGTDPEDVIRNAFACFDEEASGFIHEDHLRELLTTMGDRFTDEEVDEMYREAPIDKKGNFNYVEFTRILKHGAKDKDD

Chain of myosin light chain kinase (P11799 935-1906 limits assumed): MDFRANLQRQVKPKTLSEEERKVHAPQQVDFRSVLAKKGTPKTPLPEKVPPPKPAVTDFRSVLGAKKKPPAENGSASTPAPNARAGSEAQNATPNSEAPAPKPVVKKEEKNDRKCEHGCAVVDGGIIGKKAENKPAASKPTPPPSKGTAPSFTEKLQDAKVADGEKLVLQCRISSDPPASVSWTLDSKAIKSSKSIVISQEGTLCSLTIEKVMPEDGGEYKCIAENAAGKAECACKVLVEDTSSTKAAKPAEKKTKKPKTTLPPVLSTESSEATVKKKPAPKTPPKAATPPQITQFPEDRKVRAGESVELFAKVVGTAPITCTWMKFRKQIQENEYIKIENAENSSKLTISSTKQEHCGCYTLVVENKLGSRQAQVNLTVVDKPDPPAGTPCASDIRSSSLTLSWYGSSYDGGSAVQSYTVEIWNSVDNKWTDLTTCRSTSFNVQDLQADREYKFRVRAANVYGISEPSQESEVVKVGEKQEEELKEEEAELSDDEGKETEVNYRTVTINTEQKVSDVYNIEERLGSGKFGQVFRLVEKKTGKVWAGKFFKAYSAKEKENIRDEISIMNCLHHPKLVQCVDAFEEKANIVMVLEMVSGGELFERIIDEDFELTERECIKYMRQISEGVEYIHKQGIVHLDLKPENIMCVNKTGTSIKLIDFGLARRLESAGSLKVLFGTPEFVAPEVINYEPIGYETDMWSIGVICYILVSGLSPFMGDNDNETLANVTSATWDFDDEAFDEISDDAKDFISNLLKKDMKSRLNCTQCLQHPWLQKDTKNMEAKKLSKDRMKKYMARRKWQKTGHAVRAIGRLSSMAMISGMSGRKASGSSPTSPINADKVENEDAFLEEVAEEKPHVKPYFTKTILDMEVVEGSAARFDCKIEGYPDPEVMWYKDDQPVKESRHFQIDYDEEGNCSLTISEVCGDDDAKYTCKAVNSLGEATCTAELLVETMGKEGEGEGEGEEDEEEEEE

autophosphorylation of bovine Rho-kinase [1]: 2 times
phosphorylation of rat myosin-binding subunit by bovine Rho-kinase [2]: 15 times
phosphorylation of MBS-C by bovine Rho-kinase [3]: 5 times
Substance: GTPγS·GST-RhoA (from UniProt P61586)

phosphorylation of the myosin light chain of intact myosin (mol of phosphate into 1 mol) (intact myosin (chicken)): 1
apparent Km for myosin light chain, in the absence of GTPγS·GST-RhoA [4]: 12.6 µM
apparent Km for myosin light chain, in the presence of GTPγS·GST-RhoA [4]: 2.6 µM
Substance: bovine Rho-kinase (enzyme)

apparent Km for myosin light chain [4]: 52.1 µM
Substance: myosin light chain kinase (from UniProt P11799-2) (enzyme)

From US5906819
